Results: publication doi:10.1101/2025.03.24.644915

Experiments:
[1] = target: VP4 spike protein, uncleaved (NTR spike), simian rotavirus A strain SA11 clone C4111 (simian rotavirus A strain SA11 (clone C4111)); experiment: cryo-EM structure; purified NTR-TLP (made without trypsin, with leupeptin); single particle analysis with icosahedral symmetry, 3.40 Å; spike by localized reconstruction, 3D classification, optical flow (EnRICH) and LocSpiral
[2] = target: VP6 protein, rotavirus SA11 clone C4111 (simian rotavirus A strain SA11 (clone C4111)); experiment: cryo-EM structure; purified TR-TLP (made in the presence of trypsin); single particle analysis with icosahedral symmetry, 3.48 Å; spike by localized reconstruction, 3D classification, optical flow (EnRICH) and LocSpiral
[3] = target: VP6 protein, rotavirus SA11 clone C4111 (simian rotavirus A strain SA11 (clone C4111)); experiment: cryo-EM structure; purified NTR-TLP (made without trypsin, with leupeptin); single particle analysis with icosahedral symmetry, 3.40 Å; spike by localized reconstruction, 3D classification, optical flow (EnRICH) and LocSpiral
[4] = target: VP7 glycoprotein, rotavirus SA11 clone C4111 (simian rotavirus A strain SA11 (clone C4111)); experiment: cryo-EM structure; purified TR-TLP (made in the presence of trypsin); single particle analysis with icosahedral symmetry, 3.48 Å; spike by localized reconstruction, 3D classification, optical flow (EnRICH) and LocSpiral
[5] = target: VP7 glycoprotein, rotavirus SA11 clone C4111 (simian rotavirus A strain SA11 (clone C4111)); experiment: cryo-EM structure; purified NTR-TLP (made without trypsin, with leupeptin); single particle analysis with icosahedral symmetry, 3.40 Å; spike by localized reconstruction, 3D classification, optical flow (EnRICH) and LocSpiral

VP4 spike protein, uncleaved (NTR spike), simian rotavirus A strain SA11 clone C4111 (natural protein)
stoichiometry N [1]: 3

VP6 protein, rotavirus SA11 clone C4111 (natural protein)
stoichiometry N [2]: 3 | stoichiometry N [3]: 3

VP7 glycoprotein, rotavirus SA11 clone C4111 (natural protein)
stoichiometry N [4]: 3 | stoichiometry N [5]: 3
